Test results taken from paper PMC3626704 (BMC Biochemistry, 2013).
Numbering of substitutions follows the chain as printed.

T1: 6-Helix-Fd (HIV-1 gp41 (HXB2-like, printed sequence), stabilised)
T1 construct: also called post-fusion six-helix bundle mimic
T1 chain: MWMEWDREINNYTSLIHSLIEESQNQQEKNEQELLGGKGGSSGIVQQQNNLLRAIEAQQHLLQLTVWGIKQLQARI

B1: 16F6 bivalent scFv on phage (scFv, V domains shown)
VH: QVQLVQSGAEVRKPGASVKVSCKASGDTFSSYAISWVRQAPGQGLEWMGGIIPIFGTANYAQAFQGRVTITANESTSTAYMELSSLRSEDTAIYYCARDNPTLLGSDYWGAGTLVTVSS
VL: DIQMTQSPSTLSASIGDRVTITCRASESISSILAWYQQKPGKAPKLLISNASRLASGAPSRFSGSGSGTDFTLTISSLQPDDFATYYCQQRSNYPFTFGGGTKLEIK
B2: 25C6 bivalent scFv on phage (scFv, V domains shown)
VH: B1 VH
VL: B1 VL with S28N, I32R, S52Y, R53H, F96H
B3: 16G6 bivalent scFv on phage (scFv, V domains shown)
VH: B1 VH
VL: B1 VL with S28G, S30R, S31R, I32S, R53H, R91Y, S92Y, F96R
B4: 25A6 bivalent scFv on phage (scFv, V domains shown)
VH: B1 VH
VL: B1 VL with S28G, S30Y, S31D, I32G, N50R, S52Y, R53Y, S92A, F96H
B5: 25F10 bivalent scFv on phage (scFv, V domains shown)
VH: B1 VH
VL: B1 VL with S28G, S30H, S31N, I32R, N50H, R53N, R91Y, F96L
B6: 16E12 bivalent scFv on phage (scFv, V domains shown)
VH: B1 VH
VL: B1 VL with S28G, S30R, S31R, I32S, R53H, R91Y, S92Y, F96R
B7: 25G8 bivalent scFv on phage (scFv, V domains shown)
VH: B1 VH
VL: B1 VL with S30G, S31R, I32S, S49Y, N50R, R91S, N93T, Y94T, F96L
B8: 25C10 scFv, purified monovalent (scFv, V domains shown)
VH: B1 VH
VL: B1 VL with S28N, S30Y, S31G, I32N, N50R, S92Y, N93T, F96L
B9: 25D9 bivalent scFv on phage (scFv, V domains shown)
VH: B1 VH
VL: B1 VL with S28D, S30L, S31G, I32R, S49Y, N50R, S92A, F96L
B10: 2H10 bivalent scFv on phage (scFv, V domains shown)
VH: B1 VH
VL: B1 VL with S28D, S30Y, S31R, I32S, N50R, R91Y, F96L
B11: 16D10 bivalent scFv on phage (scFv, V domains shown)
VH: B1 VH
VL: B1 VL with S28N, S30R, S31G, I32S, S49Y, N50R, R91H, N93D, F96H
B12: 16E8 bivalent scFv on phage (scFv, V domains shown)
VH: B1 VH
VL: B1 VL with S30Y, S31G, I32S, N50H, R53H, R91N, S92D, N93T, F96H
B13: D5 bivalent scFv (biv-scFv) displayed on M13 phage (scFv, V domains shown)
VH: B1 VH
VL: B1 VL with S28G, S30Y, S31H, I32W, S49Y, N50K, R53S, R91Y, F96L
B14: 25C10 bivalent scFv on phage (scFv, V domains shown)
VH: B1 VH
VL: B1 VL with S28N, S30Y, S31G, I32N, N50R, S92Y, N93T, F96L
B15: 25C12 bivalent scFv on phage (scFv, V domains shown)
VH: B1 VH
VL: B1 VL with S28D, I32V, S49Y, S92A, Y94N, F96H
B16: 25A12 bivalent scFv on phage (scFv, V domains shown)
VH: B1 VH
VL: B1 VL with S28G, S30H, S31R, I32Y, S49Y, N50H, S92A, F96Y
B17: 25A10 bivalent scFv on phage (scFv, V domains shown)
VH: B1 VH
VL: B1 VL with S31H, I32N, R91Y, F96L
B18: 16B7 bivalent scFv on phage (scFv, V domains shown)
VH: B1 VH
VL: B1 VL with S28N, S30L, S31R, I32L, S49Y, N50Y, R53S, S92A, N93D, F96Y
B19: 25C4 bivalent scFv on phage (scFv, V domains shown)
VH: B1 VH
VL: B1 VL with S30L, S31G, I32S, S49Y, N50R, R53H, R91Y, F96L
B20: 25D6 bivalent scFv on phage (scFv, V domains shown)
VH: B1 VH
VL: B1 VL with S28N, S30Y, I32N, N50S, R91N, Y94N, F96H
B21: 25E1 bivalent scFv on phage (scFv, V domains shown)
VH: B1 VH
VL: DIQMTQSPSTLSASIGDRVTITCRASEDIGGSLAWYQQKPGKAPKLLISHAYSLASGAPSRFSGSGSGTDFTLTISSLQPDDFATYYCQQHATYPHTFGGGTKLEIK
B22: 25D3 bivalent scFv on phage (scFv, V domains shown)
VH: B1 VH
VL: B21 VL with D28N, G30H, G31R, S32R, S49Y, H50S, H91N, A92S, T93D
B23: 16F5 bivalent scFv on phage (scFv, V domains shown)
VH: B1 VH
VL: B21 VL with D28N, G30N, G31D, S32H, H50R, S53R, H91Y, T93D, Y94T, H96F
B24: 25F1 bivalent scFv on phage (scFv, V domains shown)
VH: B1 VH
VL: B1 VL with S28G, S30N, S31N, I32S, N50R, R91Y, N93S, Y94T, F96H
B25: 25F12 bivalent scFv on phage (scFv, V domains shown)
VH: B1 VH
VL: B1 VL with S28G, S30I, S31G, I32H, S49Y, S92D, N93D, F96L
B26: 25B4 bivalent scFv on phage (scFv, V domains shown)
VH: B1 VH
VL: B21 VL with D28G, G30R, G31N, S32G, H50R, Y52S, S53H, H91Y, A92Y, T93A
B27: 16E3 bivalent scFv on phage (scFv, V domains shown)
VH: B1 VH
VL: B21 VL with D28G, G30R, G31Y, S32G, H50R, Y52S, S53R, A92Y, T93A
B28: 25B8 bivalent scFv on phage (scFv, V domains shown)
VH: B1 VH
VL: B1 VL with S28N, S30N, S31R, I32N, N50R, S92Y, F96Y
B29: 25A5 bivalent scFv on phage (scFv, V domains shown)
VH: B1 VH
VL: B1 VL with S30R, I32H, N50R, R91S, N93D, F96H
B30: 25D8 bivalent scFv on phage (scFv, V domains shown)
VH: B1 VH
VL: B1 VL with S28G, I32N, N50R, S52Y, S92A, N93T, F96L
B31: 25B6 bivalent scFv on phage (scFv, V domains shown)
VH: B1 VH
VL: B1 VL with S28N, S30R, I32G, S49Y, N50R, R91Y, S92D, N93D, F96H
B32: 25C5 bivalent scFv on phage (scFv, V domains shown)
VH: B1 VH
VL: B1 VL with S28D, S30H, S31D, I32Y, N50R, R91N, S92D, N93S, F96Y

Key:
5-Helix [1] = target: T2, 5-Helix (HIV-1 group M subtype B, HXB2 (gp41 …, stabilised)); assay: ELISA; conditions: one partner purified
T2 construct: also called designed protein based on HIV-1 gp41

5-Helix [2] = target: T2, 5-Helix; assay: ELISA; competitive phage ELISA, on-phage bivalent scFv: binding to immobilised 5-Helix inhibited by free 5-Helix or free 6-Helix-Fd (concentrations for the trimer); apparent; conditions: one partner purified
6-Helix-Fd = target: T1, 6-Helix-Fd; assay: as above; conditions: one partner purified
5-Helix [3] = target: T2, 5-Helix; assay: ELISA; conditions: both partners purified

Binder	F_competitive (signal with 40 nM free 5-Helix / signal without) (5-Helix [1]) [fraction]	phage ELISA signal OD450 (5-Helix [1]) [OD450]	IC50 (5-Helix [2]) [nM]	IC50 (6-Helix-Fd) [nM]	IC50 (5-Helix [3]) [nM]
B1	0.8	3			
B2	0.2	1.8	32	~1000	
B3	0.3	2.3			
B4	0.1	3.1			
B5	0.1	1.7	0.2	22	
B6	0.1	3.1			
B7	0.1	2.1	7.2	300	
B8					56
B9	0.2	3	1.7	230	
B10	0.1	1.9			
B11	0.7	3			
B12	0.4	3			
B13			0.1	11	
B14	0.1	3.2	1.8	28	
B15	0.3	2.2	100	~1000	
B16	0.1	3.2	2.2	220	

Binder	F_competitive (signal with 40 nM free 5-Helix / signal without) (5-Helix [1]) [fraction]	phage ELISA signal OD450 (5-Helix [1]) [OD450]	IC50 (5-Helix [2]) [nM]	IC50 (6-Helix-Fd) [nM]	IC50 (5-Helix [3]) [nM]
B17	0.1	3.2	1.6	260	
B18	0.6	3			
B19	0.1	2.5			
B20	0.1	1.6	0.5	~80	
B21	0.1	3			
B22	0.1	1.6	17	170	
B23	0.2	3			
B24	0.1	2.3	0.9	40	
B25	0.2	2.7			
B26	0.1	2.9			
B27	0.7	3			
B28	0.2	2.9	3.1	~100	
B29	0.1	3.5			
B30	0.2	3.2	5.8	~3000	
B31	0.1	1.4	0.3	23	
B32	0.5	0.7			
